Assay results published in the supplement of paper PMC9170038.

System: MS2 coat protein
Experiment: apparent KD of MS2 coat protein; designed switch direction (-1 OFF switch, 1 ON switch): 1; higher = weaker reporter binding
How it was run: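 The buffer was Tris-HCl pH 7.5 with KCl, MgCl2, BSA, DTT, tRNA and Tween-20. In it, SNAP-549-labelled MS2 coat protein was titrated in doubling steps from 0.7 or 1.5 nM to 3 µM over chip-bound RNA switches transcribed by stalled E. coli RNA polymerase on Illumina chips. Apparent KD is the per-design median over clusters of curve fits to normalised fluorescence.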

[1] = input ligand: microRNA oligo, concentration not stated
[2] = Eterna round: R95, input ligand: microRNA oligo, concentration not stated
[3] = Eterna round: R95, input ligand: FMN 200 uM
[4] = Eterna round: R95, input ligand: none

Sequence: UUUGAAUUGCAAGGAUAUCUUAUUUAGAUUUUAAGAGAAGGUGCUUUACAGUUACAUGAGGAUCACCCAUGUCUUUCUUUUUAU [JR_SSNG1_Sub063] (Eterna round: R96, puzzle: Same State NG 1)
- apparent KD of MS2 coat protein [1]: 19.3 nM

Sequence: UGGCUCAGACGAGGAUAUAUGCGAUCACAUGAGGAUCACCCAUGUCUCGAGCUUCGGCUCGAGGCAUAGAAGGUGUCUGAGCCA [SSNG2/4-C2] (Eterna round: R96, puzzle: Same State NG 2)
- apparent KD of MS2 coat protein (input ligand: FMN 200 uM): 40.9 nM
- apparent KD of MS2 coat protein [1]: 83.1 nM
- apparent KD of MS2 coat protein (input ligand: none): 145 nM

Sequence: ACAUGAGAUUUAGGAUAUAUAGUACCUACAUGUGACAUGAGGAUCACCCAUGUGGUAAGUAUGACAUAGAAGGAAAAGAUAUGU [Equivalance 98 - Jieux - Same State NG 2] (Eterna round: R96, puzzle: Same State NG 2)
- apparent KD of MS2 coat protein [1]: 47.9 nM

Sequence: CGGCGCUGUCGAGAGGAUAUGCGGUGAUGGACAUGAGGAUCACCCAUGUUAGCGAUAGCAUUACGGUAGAAGGCUCUAUAGUUGC [Soteed Omei mod 9] (puzzle: Same State 2)
- apparent KD of MS2 coat protein [2]: 248 nM

Sequence: GGGAGAGGCGCAGGAUAUGGUGAGGAUCACCCACUAGAAGGGUGCACAUGAGAAUCGGACAUGAGGAUCACCCAUGUUUGGCGC (Eterna round: R96, puzzle: Same State NG 1)
- apparent KD of MS2 coat protein (input ligand: FMN 200 uM): 393 nM
- apparent KD of MS2 coat protein [1]: 121 nM
- apparent KD of MS2 coat protein (input ligand: none): 565 nM

Sequence: GUAUCUACAGGUUUUUUAGCUCGUCUGAUACAUGAGGAUCACCCAUGUUAUAGCCCUGUGCUUGCGCAGGGCUGAGG [Sensor for hsa-mir-208a ( MOD of Tearor v.4 )] (puzzle: Sensor for hsa-mir-208a)
- apparent KD of MS2 coat protein [3]: 47.6 nM
- apparent KD of MS2 coat protein [2]: 34.1 nM
- apparent KD of MS2 coat protein [4]: 49.3 nM

Sequence: GAGCCAGUCCGAGGAUAUUCGUAUUAACACAUGAGGAUCACCCAUGUGGGCUCAGAAGAGCCCUGGGAGAAGGCGGGCUGGCUC [SS-NG2-LRO17] (Eterna round: R96, puzzle: Same State NG 2)
- apparent KD of MS2 coat protein (input ligand: FMN 200 uM): 11.8 nM
- apparent KD of MS2 coat protein [1]: 30.9 nM
- apparent KD of MS2 coat protein (input ligand: none): 48.4 nM

Sequence: UUGAAGAAUUAAGGAUAUUGAAUACAUAUGUUUAACAUGAGGAUCACCCAUGUGGGUUGCGGUGUCGAGAAGGUAAAUUACUAG [JL SSNG2 1.50] (Eterna round: R96, puzzle: Same State NG 2)
- apparent KD of MS2 coat protein (input ligand: FMN 200 uM): 256 nM
- apparent KD of MS2 coat protein [1]: 177 nM
- apparent KD of MS2 coat protein (input ligand: none): 207 nM

Sequence: UUUAUUAAUAUAGGAUAUGUAAAACAUGAGGAUCACCCAUGUGAUAUCGUGAGUAAGGAGAGAGAACAGAAGGAUAAUUUUUUU [JMF's solution 2] (Eterna round: R96, puzzle: Same State NG 2)
- apparent KD of MS2 coat protein (input ligand: FMN 200 uM): 39.7 nM
- apparent KD of MS2 coat protein [1]: 35.1 nM
- apparent KD of MS2 coat protein (input ligand: none): 32.5 nM

Sequence: GUGGUCAGACAUGAGGAUCACCCAUGUGGAAUAAAUAACGGACAGGAUAUCGAAUAUAGGAUAUACGAGAAGGGUUGAUUGGUG (Eterna round: R96, puzzle: Same State NG 3)
- apparent KD of MS2 coat protein [1]: 53.9 nM

Sequence: AGUCCAGCCUGAGCUGGACAAAAGCAUGUACAUGAGGAUCACCCAUGUUCAUGUACAAGCUUUUUGCUCGUCUUAUC [salish99_208a_r3_058] (puzzle: Sensor for hsa-mir-208a)
- apparent KD of MS2 coat protein [3]: 578 nM
- apparent KD of MS2 coat protein [2]: 16.6 nM
- apparent KD of MS2 coat protein [4]: 677 nM

Sequence: AUUAAUAAUCGAGGAUAUCACGUCGAAUAGACGUGAGAAGGCGAUCAUAACAUGAGGAUCACCCAUGUAUUACAUGAAAUUAAU [SSNG1/4-B4] (Eterna round: R96, puzzle: Same State NG 1)
- apparent KD of MS2 coat protein (input ligand: FMN 200 uM): 22.4 nM
- apparent KD of MS2 coat protein [1]: 20.5 nM
- apparent KD of MS2 coat protein (input ligand: none): 38.1 nM

Sequence: ACAUGAGAGAUAGGAUAUUGUGUACCUACAUGUGACAUGAGGAUCACCCAUGUGGUAAGUAUGAGCAAGAAGGAUCAGAUAUGU [Equivalance 51 - Jieux - Same State NG 2] (Eterna round: R96, puzzle: Same State NG 2)
- apparent KD of MS2 coat protein (input ligand: FMN 200 uM): 23.2 nM
- apparent KD of MS2 coat protein [1]: 35.9 nM
- apparent KD of MS2 coat protein (input ligand: none): 69.5 nM

Sequence: CCGAUGUGGGUACAGGAUAUGUGGGCCUCCACAUGAGGAUCACCCAUGUCGGAGGCAAAGCGGCUACAGAAGGGUGCGAGCUCGA [Xeanza] (puzzle: Same State 2)
- apparent KD of MS2 coat protein [2]: 9.28 nM

Sequence: UAAAAACAUGAGGAUCACCCAUGUGAAAAUAUGGGAGGAUAUACAAAGACGAGAGUCAAAGUAGAAGGCCUAAAAU [Mat - Same State 1 - Eli mod - D88] (Eterna round: R96, puzzle: Same State 1)
- apparent KD of MS2 coat protein (input ligand: FMN 200 uM): 21.9 nM
- apparent KD of MS2 coat protein [1]: 68.3 nM
- apparent KD of MS2 coat protein (input ligand: none): 86.6 nM

Sequence: AAUAUUUAUGCAGGAUAUGAUUAACAUGAGGAUCACCCAUGUGGUGUUGUGAGUAAGGAGAGUGAUCAGAAGGGCAUUUUUUUU [JMF's solution 73] (Eterna round: R96, puzzle: Same State NG 2)
- apparent KD of MS2 coat protein (input ligand: FMN 200 uM): 379 nM
- apparent KD of MS2 coat protein [1]: 271 nM
- apparent KD of MS2 coat protein (input ligand: none): 463 nM

Sequence: ACAUGAGACUCAGGAUAUAUUGUACCUACAUGUGACAUGAGGAUCACCCAUGUGGUAAGUAUGACAUAGAAGGGAGAGAUAUGU [Equivalance 86 - Jieux - Same State NG 2] (Eterna round: R96, puzzle: Same State NG 2)
- apparent KD of MS2 coat protein (input ligand: FMN 200 uM): 37.3 nM
- apparent KD of MS2 coat protein [1]: 40.5 nM
- apparent KD of MS2 coat protein (input ligand: none): 59.9 nM

Sequence: GGUAUUAACACAGGAUAUGCUUACGAAACGUAAGCAGAAGGGUGAACAUGAGGAUCACCCAUGUUUGUACCAGGGCGUGAGCCC [JL SSNG1 1.72] (Eterna round: R96, puzzle: Same State NG 1)
- apparent KD of MS2 coat protein (input ligand: FMN 200 uM): 349 nM
- apparent KD of MS2 coat protein [1]: 632 nM
- apparent KD of MS2 coat protein (input ligand: none): 923 nM

Sequence: GAGUUACAUGAGGAUCACCCAUGUUGUUGUGGAUAAGGAUAUAUGGUAGGAAGAGGAAUGAUAGAAGGUAUUAGGG [JR_SS1_Sub064] (puzzle: Same State 1)
- apparent KD of MS2 coat protein [2]: 34.7 nM

Sequence: UGUUGUAUUACAGGAUAUCUAUUGUUUUUAGUUAGAGAAGGGUAUUCACAUGAGGAUCACCCAUGUAUAUACGAGGAAGUUGUG [JMF's solution 82] (Eterna round: R96, puzzle: Same State NG 1)
- apparent KD of MS2 coat protein (input ligand: FMN 200 uM): 59.9 nM
- apparent KD of MS2 coat protein [1]: 34.6 nM
- apparent KD of MS2 coat protein (input ligand: none): 49.9 nM

Sequence: GGAGCCAAGGCAGGAUAUUCAUAUUAAAACAUGAGGAUCACCCAUGUAAAGGCCAGAAGGCCUUGGGAGAAGGGCCAUGGCUCG [Xeonanis - 13 mod1] (Eterna round: R96, puzzle: Same State NG 2)
- apparent KD of MS2 coat protein (input ligand: FMN 200 uM): 19.9 nM
- apparent KD of MS2 coat protein [1]: 37.6 nM
- apparent KD of MS2 coat protein (input ligand: none): 49 nM

Sequence: GUAAAACAUGAGGAUCACCCAUGUAAUAAUAUGGGAGGAUAUCUGAUUUAAUUUAAUUUAAGAGAAGGCCUAAAUG [Mat - Same State 1 - Mod of Eli - D58] (puzzle: Same State 1)
- apparent KD of MS2 coat protein [3]: 39.9 nM
- apparent KD of MS2 coat protein [2]: 318 nM
- apparent KD of MS2 coat protein [4]: 608 nM

Sequence: UAGAAACAUGAGGAUCACCCAUGUGGGUUAAACACAGGAUAUCACGCCAAAAGAAAAGCGUGAGAAGGGUGACCGA [Xeusisus] (puzzle: Same State 1)
- apparent KD of MS2 coat protein [3]: 166 nM
- apparent KD of MS2 coat protein [2]: 71.2 nM
- apparent KD of MS2 coat protein [4]: 161 nM

Sequence: UCGGGCGUACUUGCUGACAUGAGGAUCACCCAUGUCCUUGCGCAGGAUAUGGUUCCGUUUCGGUUCCAGAAGGUCCUGGCUGCU [salish99_SSNG3_r04_319] (Eterna round: R96, puzzle: Same State NG 3)
- apparent KD of MS2 coat protein (input ligand: FMN 200 uM): 30.5 nM
- apparent KD of MS2 coat protein [1]: 19.5 nM
- apparent KD of MS2 coat protein (input ligand: none): 33.2 nM

Sequence: AGUCCAGCCUGAGCUGGACAAAAGCAUGUACAUGAGGAUCACCCAUGUUCAUGUAUAAGCUUUUUGCUCGUCUUAAA [Zipper 52 - 11] (puzzle: Sensor for hsa-mir-208a)
- apparent KD of MS2 coat protein [3]: 18.5 nM
- apparent KD of MS2 coat protein [2]: 10.2 nM
- apparent KD of MS2 coat protein [4]: 17.2 nM

Sequence: AACAAUCUAUCUGAGGAUAUCAUGAAAUAAACAUGAGGAUCACCCAUGUGCAGGAAAACUUCAUAUGAGAAGGCAGAUAGAUUGA [salish99_ss2_r3_045] (puzzle: Same State 2)
- apparent KD of MS2 coat protein [3]: 17.5 nM
- apparent KD of MS2 coat protein [2]: 27.7 nM
- apparent KD of MS2 coat protein [4]: 26.4 nM

Sequence: AAAAGAAGAAUGUAGGAUAUACAAAAGAACACAUGAGGAUCACCCAUGUGAGCCUAAUGUAAGAAGUAGAAGGACAAAGAGAAAA [Default title] (puzzle: Same State 2)
- apparent KD of MS2 coat protein [3]: 91.3 nM
- apparent KD of MS2 coat protein [2]: 62 nM
- apparent KD of MS2 coat protein [4]: 67.3 nM

Sequence: AGUCCAGCCUGAGCUGGACAAAAGCAUGUACAUGAGGAUCACCCAUGUCAUGUACAAGCUUUUUGUUCGUCUUAAUA [Zipper 49 - 13] (puzzle: Sensor for hsa-mir-208a)
- apparent KD of MS2 coat protein [3]: 258 nM
- apparent KD of MS2 coat protein [2]: 14.6 nM
- apparent KD of MS2 coat protein [4]: 350 nM

Sequence: GUUACAUGAGGAUCACCCAUGUGUGUGUGGGAGUGAGUGGCUUAGGAUAUCUAUGAUUUUAGUUAAGAGAAGGGAGAUUGUUGU [SS-NG3-LRO05] (Eterna round: R96, puzzle: Same State NG 3)
- apparent KD of MS2 coat protein (input ligand: FMN 200 uM): 554 nM
- apparent KD of MS2 coat protein [1]: 276 nM
- apparent KD of MS2 coat protein (input ligand: none): 328 nM

Sequence: UUUAGUUGCGGGCAGGAUAUGUAUUAAAAUACAUGAGGAUCACCCAUGUGCGGGUGUAACACCCGACAGAAGGGCCAAUCGCGAC [Laonerce - 13] (puzzle: Same State 2)
- apparent KD of MS2 coat protein [2]: 220 nM

Sequence: GUGCAACCGUGUGAGGAUAUCGGUGAAUAAACAUGAGGAUCACCCAUGUCCGAAGCUCGGUUCUCCGAGAAGGCGCACAGUUGCA [Same State 2 - Mod of Erisin v.4] (puzzle: Same State 2)
- apparent KD of MS2 coat protein [3]: 23.8 nM
- apparent KD of MS2 coat protein [2]: 116 nM
- apparent KD of MS2 coat protein [4]: 159 nM

Sequence: GAGAGAGGGCGAGGAUAUUCGGUGAUAAUGAUGGAAGAAGGCGCAGACAUGAGGAUCACCCAUGUGGGAAUAAUCCAGAGAGAG [Parity 14 - Jieux - Same State NG 1] (Eterna round: R96, puzzle: Same State NG 1)
- apparent KD of MS2 coat protein (input ligand: FMN 200 uM): 206 nM
- apparent KD of MS2 coat protein [1]: 101 nM
- apparent KD of MS2 coat protein (input ligand: none): 131 nM
